pKd: −log10 of the molar value. Where two headings read alike, the source gives them in different places.

Test [1] addresses T1, UFC1 (Homo sapiens, UniProt Q9Y3C8).
T1 construct: Full length UFC1, residues 1–167; modified ubiquitin tag (Ub19) with TEV site (N, cleaved yes); made in house; host or cells: E. coli T7 Express
T1 sequence (Q9Y3C8 1-167): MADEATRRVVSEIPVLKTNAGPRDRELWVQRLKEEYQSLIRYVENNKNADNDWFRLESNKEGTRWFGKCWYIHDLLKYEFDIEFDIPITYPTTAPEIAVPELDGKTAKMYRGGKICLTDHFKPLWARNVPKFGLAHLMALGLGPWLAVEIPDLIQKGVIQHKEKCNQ
Nature of the test: NMR titration with UFC1. In kind it is binding. Particulars: [15N,1H] TROSY-HSQC, 25 °C. How it is done: To understand the role of the UBA5 C-terminal region in coordination of the binding events reported above on the molecular level, we performed NMR titration experiments. […] It seems, that these UBA5 residues form additional interactions with UFC1.
All NMR experiments were performed at a sample temperature of 25 °C on Bruker 600, 700, 800, 900, and 950 MHz spectrometers equipped with cryogenic probes, and a 500 MHz spectrometer equipped with a room-temperature triple-resonance probe. All NMR spectra were analyzed with the Sparky 3.114 software (University of California, San Francisco, USA). For NMR titration experiments, the non-labeled UBA5 peptides were titrated to 100 µM ^13C,^15N-labeled UFC1 to a final molar ratio of 1:8 (UFC1:UBA5 peptide). Conversely, 100 µM ^13C,^15N-labeled UBA5 peptides were titrated with non-labeled UFC1 to a final molar ratio 1:4 (UBA5 peptide:UFC1). 2D ^1H-^15N correlation spectra ([^15N,^1H] TROSY-HSQC) were recorded at each titration point. The same types of spectra were recorded to estimate binding of ^13C,^15N-labeled UFC1 (75 µM) to non-labeled UBA5, UBA5~UFM1 and UFM1 at 1:2 molar ratios. CSP values, Δδ, were calculated for each individual amide group using the formula Δδ = [(ΔδN/5)^2 + Δδ^2HN)]^1/2.

Test [2] has as its target T1, UFC1. The experiment in a line: ITC, UBA5 constructs vs UFC1. The format is binding. Particulars: for N: ITC stoichiometry; for N / ΔG / ΔS / −T*ΔS / KA*10^−6 / pKd: UFC1 titrated to full length UBA5; for N / ΔH / KA*10^−6: ± = fitting error; for ΔG / ΔS / −T*ΔS / ΔH / KA*10^−6 / pKd: ITC, 25 °C; for ΔH: UFC1 titrated to full length UBA5 (FL^1–404 or FL^1–404 C250K~UFM1), single profile; for ΔH / pKd: 25 mM HEPES pH 7.5, 100 mM NaCl; for KA*10^−6: value is KA × 10^−6; for pKd: VP-ITC, one-site model, single ITC profile. The source says:
To understand how the UBA5 C-terminus participates in the ufmylation cascade, we performed isothermal titration calorimetry (ITC) experiments, in which we titrated UBA5 C-terminal peptides (see Table 1) to the UBA5 AD, UFC1, UFM1 and representative LC3/GABARAP proteins (Figure 2A, Supplementary Figure S2A–D and Table 2).
To investigate if conjugation of UFM1 to the UBA5 catalytic cysteine (C250) affects the UFC1:UBA5 interactions, we prepared full length UBA5 C250K mutant and stably conjugated UFM1 to it as reported before for a number of ubiquitin-specific E2 enzymes. We compared the UFC1 spectra after addition of a twofold molar excess of FL^1–404 and FL^1–404 C250K~UFM1 constructs (Supplementary Figure S5C).
All proteins and peptides were expressed in E.Coli T7 Express (New England Biolabs GmbH, Frankfurt, Germany) cells in LB or M9 (to obtain ^15N- and ^13C,^15N-labeled polypeptides) media according to the protocol described in [33, 36]. For protein purification, bacterial cell pellets were resuspended in lysis buffer (50 mM Tris-HCl pH = 7.5, 100 mM NaCl, 5% glycerol, 5 mM PIC (protease inhibitor cocktail)) and lysed via sonication (TT13 Sonotrode, 40% amplitude, for 6 × 1 min with a 0.5/0.5-s pulse). Lysates were centrifuged for 45 min at 17,000× g at 4 °C. Supernatants were loaded onto a His Trap Fast Flow 5 mL column (GE Healthcare, München, Germany) equilibrated in loading buffer (50 mM Tris-HCl pH = 8.0, 250 mM NaCl, 1% glycerol, 20 mM imidazole). The column was washed with loading buffer for 5–10 CV and protein was eluted with elution buffer (50 mM Tris-HCl pH = 8, 250 mM NaCl, 1% glycerol, 400 mM imidazole). Simultaneous TEV cleavage (1 mg TEV protease was added to 100 mg peptides/proteins) and buffer exchange to loading buffer via dialysis was performed over night at 4 °C. After reverse IMAC, proteins were concentrated with conical concentrators (Millipore Merck, Darmstadt, Germany) and loaded on a Superdex 10/60 75 or 200 column (GE Healthcare, München, Germany) for further purification and equilibration with ITC/NMR buffer (25 mM HEPES pH = 7.5, 100 mM NaCl). For structural NMR spectroscopy, buffer containing 50 mM Tris-HCl pH = 7.5, 100 mM NaCl was used. Prior to NMR experiments, TCEP and protease inhibitors cocktail were added to the samples to final concentrations 1 and 5 mM, respectively. Purified peptides and protein were concentrated and stored at −80 °C. The protein and peptide concentrations were calculated from the UV absorption at 280 nm by Nanodrop spectrophotometer (Thermo Scientific, Langenselbold, Germany).
All ITC experiments were performed at 25 °C using a VP-ITC microcalorimeter (Malvern Panalytical Ltd., Malvern, UK). Peptides in concentration of ~400 µM were titrated into 20–25 µM solutions of corresponding binding partner at a stirring speed of 307 rpm. The raw data were corrected on the dilution heat of peptides obtained in independent experiment (titration of the peptide in syringe into the ITC/NMR buffer in the measuring cell). Pre-titration delay was set to 180 s, interval between titration steps was experimentally adjusted to avoid kinetic contribution to the observed heat effects and set to 200 s. A single ITC profile was collected for each type of interaction. The ITC data were analyzed based on a “one-site” binding model with MicroCal ITC software implemented in Origin 7.0.

A further test addresses T2, UFM1 (Homo sapiens, UniProt P61960).
T2 construct: Full length UFM1, residues 2–83; modified ubiquitin tag (Ub19) with TEV site (N, cleaved yes); made in house; host or cells: E. coli T7 Express
The experiment in a line: Gel filtration and electrophoresis of UBA5 C250K~UFM1 conjugates with excess UFM1. The format is binding. The following applies: gel filtration, Superdex 200 10/300, 4 times molar excess of UFM1, electrophoretic analysis. An excerpt: Figure 4 Interaction studies between full length UBA5 and UFC1 proteins. (A) Gel electrophoresis of ufmylation assays including UBA5 FL^1–404 (left plot) and UBA5 ΔR3^1–380. (B) UFC1 binding to full length UBA5 (left plot) and full length stable UBA5~UFM1 conjugate (right plot) observed by ITC experiments. […] KD values are indicated. (C) Gel-filtration profiles of the FL^1–404 C250K~UFM1 conjugates in presence of 4 times molar excess of UFM1 (red lines) and UFC1 (black lines). The peak subjected to electrophoretic analysis is indicated by an asterisk. (D) Scheme of reactions involving UBA5 in the ufmylation cascade. The structures of UBA5 AD (brown), UFM1 (cyan) and UFC1 (grey) are represented as ribbon diagrams; the UBA5 unstructured C-terminus containing regions R1 (orange), R2 (green) and R3 (violet) is shown as dashed lines. The structures were generated from PDB entry 5IAA [29]. * indicates regions of another UBA5 molecule involved in the in trans transfer of UFM1.
For stable UBA5~UFM1 conjugation, 70 µM UFM1, 20 µM FL^1–404 C250K and 1 mM ATP were added to ufmylation reaction buffer (50 mM HEPES […], 100 mM NaCl, 5 mM MgCl2). For NMR analysis, resulting complexes were concentrated and equilibrated with ITC/NMR buffer. To analyze complex formation by ufmylation assay 300 µL of sample were loaded onto a Superdex 200 10/300 column (GE Healthcare, München, Germany).
On the technique in general: In gel filtration, larger molecules generally elute earlier.

In test [3] the target is T1, UFC1. Nature of the test: In vitro thioester formation (ufmylation) assay, UFC1~UFM1 conjugate. In kind it is biochemical. As to the method:
First, we analyzed the effect of the UBA5 C-terminus on UFM1 transfer to UFC1 with an in vitro thioester formation assay (Figure 1B–E).
Ufmylation reaction assays were adopted from work of Xie. Briefly, 70 µM UFM1, 20 µM UFC1 and 20 µM of different UBA5 constructs were mixed in reaction buffer (50 mM HEPES pH = 7.5, 100 mM NaCl, 5 mM MgCl2). After starting the reaction with addition of 1 mM ATP, the reaction mix was incubated at 22 °C for the desired time. To quench the reaction and prepare electrophoretic samples, 1 µL of the reaction mix was added to 99 µL 1x non-reducing SDS loading buffer and frozen in liquid nitrogen. Sample content was visualized by sodium dodecyl sulfate polyacrylamide gel electrophoresis (SDS-PAGE). The transfer to polyvinylidene difluoride (PVDF) membrane was performed via a Trans-Blot® Turbo™ Transfer System (Bio-Rad, München, Germany). After transfer the membrane was blocked with TBST (Tris-buffered saline with Tween20 buffer, 20 mM Tris, 150 mM NaCl and 0.1% TWEEN 20) containing 5% w/v nonfat dry milk for 1 h, followed by α-UFC1 antibody incubation over night at 4 °C (ab189251 abcam, 1:10,000 in TBST containing 5% w/v nonfat dry milk). After washing with TBST the membrane was incubated with secondary antibody (anti-rabbit-HRP) for 1 h at RT and again washed with TBST. Detection was performed by addition of ECL solution. For quantification of UFC1 ufmylation coloc2 software implemented in ImageJ was used.

The next test concerns UFM1, UFC1. The following applies: cited from earlier work. An excerpt: The role of this region is not understood, and no interacting proteins could be identified so far. […] Ufmylation is essential for embryonic development. The A371T mutation was described previously to be present in patients suffering from severe infantile-onset encephalopathy. […] Our ITC experiments with C-terminal UBA5 peptides containing the A371T or its phosphomimicking A371E mutations (loca ...

T2 sequence (P61960 2-83): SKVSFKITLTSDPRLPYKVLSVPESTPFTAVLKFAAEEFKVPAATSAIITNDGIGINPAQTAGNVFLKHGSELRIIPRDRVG

“FL^1–404 C250K~UFM1: full length UBA5 C250K mutant with UFM1 stably conjugated to it”: the “interaction with UFC1 (in words)” value with UFC1 [1] is recorded as “no significant enhancement of the UBA5:UFC1 interaction”. In the test with UFC1 [2], the N is recorded as 1.03 ± 0.009, the ΔG is -8.10 kcal/mol, the ΔS is on record as −0.34 cal mol^−1 K^−1 and the “−T*ΔS” value was determined as 0.10 kcal/mol. In the test with UFC1 [2], the ΔH is -8.21 ± 0.01 kcal/mol, the “KA*10^−6” value is given as 0.87 ± 0.05 M^−1 and the pKd is 5.92. The “non-conjugated UFM1 in conjugate peak” value in the test with UFM1 is recorded as “contains non-conjugated UFM1”.

Consider “FL^1–404: Full length UBA5, residues 1–404”, for which, in the test with UFC1 [3] (within 30 min, 70 µM UFM1, 20 µM UFC1, 20 µM UBA5 construct, 1 mM ATP, 50 mM HEPES pH 7.5, 22 °C, Western blot, triplicates), the “UFC1 conjugated to UFM1 (UFC1~UFM1)” value is ~ 90%. In addition, in the test with UFC1 [1], the “interaction with UFC1 (in words)” value is given as “did not observe significant CSPs (shift or disappearance of the UFC1 resonances) in comparison to the spectra of the UFC1:R3^381–404W complex”. Besides, in the test with UFC1 [2], the N was 0.97 ± 0.009, the ΔG is -8.00 kcal/mol, the ΔS worked out at 1.26 cal mol^−1 K^−1 and the “−T*ΔS” value is -0.38 kcal/mol. In addition, in the test with UFC1 [2], the ΔH is -7.62 ± 0.01 kcal/mol, the “KA*10^−6” value worked out at 0.72 ± 0.04 M^−1 and the pKd is 5.85.

Take “UBA5 A371T mutant: A371T mutation in the human UBA5 protein, literature”: the “effect of UBA5 A371T mutation on UFM1 activation / transfer” value is “slightly reduced UBA5 thioester conjugation with UFM1 and reduced enzymatic activity in trans-thioesterification of UFC1” in the test with UFM1, UFC1; “decreases the ability of UBA5 to activate UFM1, to transfer the activated UFM1 to UFC1 and to mediate UFBP1~UFM1 formation” in the test with UFM1, UFC1 (listed as A371T mutation).

Regarding “ΔR3^1–380: UBA5 with deleted R3 region, residues 1–380”, in the test with UFC1 [3] (reactions started with 25 µM ATP), the “UFM1 transfer to UFC1, ΔR3^1–380 vs FL^1–404 (in words)” value is listed as “significantly slowed down UFM1 transfer to UFC1”. Moreover, the “interaction with UFC1 (in words)” value in the test with UFC1 [1] is “did not interact with UFC1”.

Broadly, the pKd is the Kd on a negative log10 scale, so that one unit is a factor of ten. A lower pKd goes with a large Kd.

Source of the values: article PMC8304084, “A Concerted Action of UBA5 C-Terminal Unstructured Regions Is Important for Transfer of Activated UFM1 to UFC1” (International Journal of Molecular Sciences, 2021).
